Assay results taken from PMC10447908, “Customizably designed multibodies neutralize SARS-CoV-2 in a variant-insensitive manner” (Frontiers in Immunology, 2023).

Molecular target: T1, SARS-CoV-2 Spike receptor binding domain, Wuhan (ancestral) variant (SARS-CoV-2, UniProt P0DTC2, biotinylated in vitro when needed)
T1 construct: also called Wuhan RBD; soluble (monomeric) RBD
Assay: flow cytometry on cells; cell-surface binding inhibition: 36 nM RBD preincubated with 1 to 1088 nM of the molecule for 1 h at 37°C in PBS, 1% BSA, 2 mM EDTA, then 1x10^5 HEK-293T-hACE2 cells for 1 h on ice; RBD on cells revealed with Strep-Tactin-Dye649; blocker and RBD meet in solution
Conditions: both partners purified

B1: Binder C (VHH)
VHH: QVQLVESGGGLVQPGGSLRLSCAASGITLDYYAIGWFRQAPGKEREGVSRIRSSDGSTNYADSVKGRFTMSRDNAKNTVYLQMNSLKPEDTAVYYCAYGPLTKYGSSWYWPYEYDYWGQGTQVTVSS
notes: not shown: His6, N-terminal, cleaved; SUMO, N-terminal, cleaved
binding result: binds
